The source of these data is paper PMC5349888, “Thyroid transcription factor FOXE1 interacts with ETS factor ELK1 to co-regulate TERT”.

One data set concerns the target T1, ELK1-HA (human, UniProt P19419 1-428).
T1 sequence: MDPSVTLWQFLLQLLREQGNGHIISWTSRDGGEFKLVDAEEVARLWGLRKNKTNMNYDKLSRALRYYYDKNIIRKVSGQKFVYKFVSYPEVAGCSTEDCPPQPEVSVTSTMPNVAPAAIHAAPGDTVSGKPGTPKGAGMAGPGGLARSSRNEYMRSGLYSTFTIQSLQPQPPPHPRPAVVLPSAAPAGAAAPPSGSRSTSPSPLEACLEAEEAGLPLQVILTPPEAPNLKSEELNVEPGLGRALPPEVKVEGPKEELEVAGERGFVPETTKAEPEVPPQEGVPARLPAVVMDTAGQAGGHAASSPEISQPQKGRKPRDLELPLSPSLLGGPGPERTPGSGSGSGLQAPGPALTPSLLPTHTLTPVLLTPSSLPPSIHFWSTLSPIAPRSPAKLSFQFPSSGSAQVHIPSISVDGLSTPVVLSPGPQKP
The data set can be described thus: EMSA; ELK1 alone; EMSA: 1 ug protein, 150 mM KCl, 50 ng/uL poly(dI-dC), 10% glycerol, 10 mM Tris pH 7.5, room temperature 30 min; 6% polyacrylamide gel. The following applies: protein: recombinant; tags: HA (pCMV-HA-N); label: 5' biotin; blunt. In general terms: In EMSA bound probe runs differently from free probe, usually more slowly.

Another data set addresses T2, FOXE1-Flag;ELK1-HA (human;human, UniProt O00358;P19419 1-373;1-428, |).
T2 sequence 1: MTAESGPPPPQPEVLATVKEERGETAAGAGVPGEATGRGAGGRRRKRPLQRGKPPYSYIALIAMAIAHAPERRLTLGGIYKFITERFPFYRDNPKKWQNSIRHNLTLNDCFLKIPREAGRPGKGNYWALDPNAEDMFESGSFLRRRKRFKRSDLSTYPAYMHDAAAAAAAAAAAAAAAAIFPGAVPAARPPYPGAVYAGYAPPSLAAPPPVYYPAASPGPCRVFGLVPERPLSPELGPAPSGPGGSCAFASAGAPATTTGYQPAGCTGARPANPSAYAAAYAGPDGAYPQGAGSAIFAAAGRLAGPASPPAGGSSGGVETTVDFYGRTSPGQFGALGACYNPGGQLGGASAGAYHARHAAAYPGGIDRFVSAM
T2 sequence 2: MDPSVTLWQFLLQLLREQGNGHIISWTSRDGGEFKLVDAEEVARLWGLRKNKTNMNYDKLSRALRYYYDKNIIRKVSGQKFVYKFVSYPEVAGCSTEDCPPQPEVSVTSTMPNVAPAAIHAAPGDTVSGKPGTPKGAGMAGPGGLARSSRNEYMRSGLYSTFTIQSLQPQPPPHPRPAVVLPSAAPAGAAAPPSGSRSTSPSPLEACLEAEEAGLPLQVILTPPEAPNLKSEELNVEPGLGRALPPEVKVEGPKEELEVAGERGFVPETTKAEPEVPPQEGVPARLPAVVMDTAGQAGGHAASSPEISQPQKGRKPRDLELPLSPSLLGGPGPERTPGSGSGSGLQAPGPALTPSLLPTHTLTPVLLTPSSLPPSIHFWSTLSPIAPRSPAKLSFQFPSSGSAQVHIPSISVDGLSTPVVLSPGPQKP
Description: EMSA; FOXE1 shifts only with ELK1 present; EMSA: 1 ug protein, 150 mM KCl, 50 ng/uL poly(dI-dC), 10% glycerol, 10 mM Tris pH 7.5, room temperature 30 min; 6% polyacrylamide gel. The following applies: protein: recombinant;recombinant; tags: 3xFlag (p3XFlag-CMV-7.1);HA (pCMV-HA-N); copies: 1;1; label: 5' biotin; blunt.

The target of the next data set is T3, FOXE1-Flag (human, UniProt O00358 1-373).
T3 sequence: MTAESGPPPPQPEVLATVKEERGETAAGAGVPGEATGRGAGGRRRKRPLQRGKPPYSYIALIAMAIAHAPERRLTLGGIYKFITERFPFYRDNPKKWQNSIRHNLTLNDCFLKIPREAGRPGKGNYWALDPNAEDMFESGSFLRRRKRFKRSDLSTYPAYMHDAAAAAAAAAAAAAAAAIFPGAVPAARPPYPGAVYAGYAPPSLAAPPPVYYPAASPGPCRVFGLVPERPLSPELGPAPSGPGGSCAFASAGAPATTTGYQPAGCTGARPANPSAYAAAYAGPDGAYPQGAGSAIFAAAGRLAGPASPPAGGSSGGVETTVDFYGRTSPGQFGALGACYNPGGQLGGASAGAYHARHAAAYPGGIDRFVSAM
The data set can be described thus: EMSA; positive control; EMSA: 1 ug protein, 150 mM KCl, 50 ng/uL poly(dI-dC), 10% glycerol, 10 mM Tris pH 7.5, room temperature 30 min; 6% polyacrylamide gel. Particulars: protein: recombinant; tags: 3xFlag (p3XFlag-CMV-7.1); label: 5' biotin; blunt.

B1: TERT promoter probe (dsDNA)
DNA 1: CCCCGCCCCGTCCCGACCCCTCCCGGGTCCCCGGCCCAGCCCCCTCCGGGCCCTCCCAGCCCCTCCCCTTCCTTTCCGCGGCCCC
DNA 2: GGGGCCGCGGAAAGGAAGGGGAGGGGCTGGGAGGGCCCGGAGGGGGCTGGGCCGGGGACCCGGGAGGGGTCGGGACGGGGCGGGG
In the case of B1, the binding result with ELK1-HA and with FOXE1-Flag;ELK1-HA was “binds” in each case.

B2: TG promoter K region probe (dsDNA)
DNA 1: GAGGGAGTTCCTGTGACTAGCAGAGAAAACAAAGTGAGCCAC
DNA 2: GTGGCTCACTTTGTTTTCTCTGCTAGTCACAGGAACTCCCTC
B2: in the data set with FOXE1-Flag, the binding result was “binds”.
